The term stoichiometry N denotes the number of molecules, sites or subunits per partner or assembly.

The target in series [1] is ComR WT (Streptococcus thermophilus, UniProt A0A1L1QK15). Description: biochemical. The series is classed as binding, Streptococcus thermophilus LMD-9. The note with it: for Kd: Table 2 (WT and variant XIPs), ITC, 20°C, 20 mM Tris-HCl pH 8.0, 150 mM NaCl, 1 mM EDTA, 50 μM protein in cell, 500 μM peptide in syringe, one-binding-site model, apparent KD, read-out: KD. As to the method: Purification of ComR-StreptagII proteins (StreptagII at C-terminus) was performed as described previously with some modifications. E. coli strain BL21 Gold cultures were grown in 2YT medium at 15°C until an OD600 of ~ 0.5, cooled down on ice for 10 minutes, and induced by addition of 0.2% of L-arabinose (wt vol^-1) before continuous shaking at 28°C for 4 h. Cells were then harvested by centrifugation (5,000 × g during 15 min at 8°C). The pellets were resuspended in cold buffer W (100 mM Tris-HCl pH 8.0, 150 mM NaCl, 1 mM EDTA) supplemented with 0.5 mg ml^−1 of lysozyme, incubated for 30 min at 4°C, and sonicated at 4°C. […] For structural and biophysical analyses, the purification protocol was completed by a size exclusion chromatography step using a HiLoad 16/600 Superdex 75 prep grade column (GE Healthcare) equilibrated in buffer W plus 10% (vol vol^-1) glycerol. Purified proteins were aliquoted, flash frozen and conserved at -20°C. Their purity was visualized by SDS-PAGE and their concentrations were measured using a Nanodrop apparatus (protein A280 method) (ThermoFisher Scientific).
Isothermal titration calorimetry (ITC) experiments were performed at 20°C in 20 mM Tris-HCl pH 8.0, 150 mM NaCl, 1 mM EDTA with an ITC200 calorimeter (Microcal). The protein concentration in the microcalorimeter cell and the peptide concentration in the syringe were set at 50 μM and 500 μM, respectively. A first injection of 0.4 μl, which was not taken into account for the fitting, was followed by 20 injections of 2 μl at intervals of 180 s. The peptide concentration used in the calculations is based on the weight of the lyophilized peptide and is therefore inaccurate because there may be a significant quantity of bound water, and salts or counter ions. However, the calculated number of binding sites, n, is always close to 1, in agreement with the 1:1 ratio observed in the crystal structure of the ternary complex. […] The data were analyzed using the MicroCal Origin software provided by the manufacturer. […] It was therefore not possible to distinguish the two events and the fitting was performed with the one-binding-site model. The calculated KD are therefore apparent values.

The subject of series [2] is ComR from S. thermophilus. Further details: method as in 2 sources, ref [30] = [30]; PMID 23323845; doi:10.1111/mmi.12157; 30 Fontaine L , Goffin P , Dubout H , Delplace B , Baulard A , Lecat-Guillet N , et al Mechanism of competence activation by the ComRS signalling system in streptococci . Mol Microbiol . 2013; 87 ( 6 ||| ref [29] = [29]; PMID 20023010; doi:10.1128/JB.01251-09; 29 Fontaine L , Boutry C , de Frahan MH , Delplace B , Fremaux C , Horvath P , et al A novel pheromone quorum-sensing system controls the development of natural competence in Streptococcus thermophilu. The settings on record: cited from earlier work; for in vivo activation efficiency / activation of ComR: previous analysis, ComR from S. thermophilus, ref [30]; for activity of heptapeptide ComS18-24: previous study, lacking the N-terminal Leucine, ref [29].

Series [3] concerns the target ComR from Streptococcus thermophilus LMD-9 (ComR-StreptagII, wild type) (Streptococcus thermophilus LMD-9). Description: ITC; peptide 500 μM in the syringe, ComR 50 μM in the cell; 20°C; 20 mM Tris-HCl pH 8.0, 150 mM NaCl, 1 mM EDTA; one-binding-site model; apparent KD (peptide binding and dimerization not told apart). In general terms: ITC needs no label: the signal is the heat of the interaction.

The target in series [4] is ComR F171A/Y174A (ComR-StreptagII double mutant) (Streptococcus thermophilus LMD-9). The description is as above.
The target of series [5] is ComR K100A (ComR-StreptagII mutant) (Streptococcus thermophilus LMD-9). The series is described as above.
For series [6], the target named is ComR K87A/K246A (ComR-StreptagII double mutant) (Streptococcus thermophilus LMD-9). The series is described as above.
Series [7] concerns the target ComR R92A (ComR-StreptagII mutant) (Streptococcus thermophilus LMD-9). Described as above.
For series [8], the target named is ComR T90A (ComR-StreptagII mutant) (Streptococcus thermophilus LMD-9). The series is described as above.
The target in series [9] is ComR Y91A (ComR-StreptagII mutant) (Streptococcus thermophilus LMD-9). The description is as above.
Series [10] concerns the target ComR from Streptococcus thermophilus LMD-9 (ComR-StreptagII, wild type) (Streptococcus thermophilus LMD-9). The description is as above. The source holds these as a separate data set.
Series [11] addresses T1, ComR WT (Streptococcus thermophilus LMD-9, UniProt PDB:5JUB_1 1-310).
T1 sequence: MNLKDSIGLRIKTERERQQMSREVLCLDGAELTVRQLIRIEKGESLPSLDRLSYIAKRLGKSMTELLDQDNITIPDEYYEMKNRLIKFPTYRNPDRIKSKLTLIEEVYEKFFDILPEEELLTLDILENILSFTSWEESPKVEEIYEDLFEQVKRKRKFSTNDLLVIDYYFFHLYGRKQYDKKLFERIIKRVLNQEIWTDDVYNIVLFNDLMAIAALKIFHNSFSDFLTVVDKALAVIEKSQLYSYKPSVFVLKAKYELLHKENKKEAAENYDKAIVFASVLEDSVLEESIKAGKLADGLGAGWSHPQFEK
Description: X-ray crystallography; XIP (LPYFAGCL); 0.1 M MgCl2 in crystallization; EMSA: 20 mM Tris-HCl pH 8.0, 150 mM NaCl, 1 mM EDTA, 10% glycerol, 1 mg/ml BSA, 37 C 10 min, 40 ng DNA in 20 ul; crystal: 30% PEG 550 MME, 0.1 M MgCl2, 0.05 M Tris-HCl pH 8.5, 18 C. The settings on record: protein: recombinant; tags: C-terminal StreptagII; chain copies: 2; blunt. On the technique in general: In EMSA bound probe runs differently from free probe, usually more slowly.

Like-named read-outs stand apart in the source and are kept apart here. Peptide text beside a SMILES is read from it.

As for `CC(C)C[C@H](NC(=O)[C@H](CS)NC(=O)CNC(=O)[C@H](C)NC(=O)[C@H](C)NC(=O)[C@H](Cc1ccc(O)cc1)NC(=O)[C@@H]1CCCN1C(=O)[C@@H](N)CC(C)C)C(=O)O` [F20A] (H-LPYAAGCL-OH), in series [1], the affinity in words result is reported as “the affinity of the peptide decreases drastically” and the Kd stood at 2130 ± 226 nM.
With “VPFFMIYY [type I peptide VPFFMIYY from S. vestibularis]”, in series [2], the “in vivo activation efficiency / activation of ComR” value is reported as “more efficiently activated by the type II peptide MGLDWWSL from S. mutans than by the type I peptide VPFFMIYY”.
In the case of “ComS18-24: heptapeptide ComS18-24 lacking the N-terminal Leucine, minimal active form of the signaling peptide (PYFAGCL)”, the “activity of heptapeptide ComS18-24” value was “also fully active” in [2] and “minimal active form of the signaling peptide” in series [2] (listed as heptapeptide 18–24).
On to `CC(C)C[C@H](N)C(=O)N1CCC[C@H]1C(=O)N[C@@H](Cc1ccc(O)cc1)C(=O)N[C@@H](Cc1ccccc1)C(=O)N[C@@H](C)C(=O)NCC(=O)N[C@@H](CS)C(=O)N[C@@H](C)C(=O)O` [L24A] (H-LPYFAGCA-OH), for which, in series [1], the affinity in words entry is on record as “the affinity of the peptide decreases drastically” and the Kd worked out at 1550 ± 332 nM.
On to “GAWYYVPL [casein-derived octapeptide GAWYYVPL]”, for which the “in vivo activation efficiency / activation of ComR” value in series [2] is on record as “also activated”.
In the case of `CC(C)C[C@H](NC(=O)[C@H](CS)NC(=O)CNC(=O)[C@H](C)NC(=O)[C@H](Cc1ccccc1)NC(=O)[C@H](C)NC(=O)[C@@H]1CCCN1C(=O)[C@@H](N)CC(C)C)C(=O)O` [Y19A] (H-LPAFAGCL-OH), in [1], the affinity in words result is given as “only little impact on the affinity of the protein” and the Kd was determined as 52 ± 13 nM.
As for “LAYFYPEL [casein-derivative peptide LAYFYPEL]”, the “in vivo activation efficiency / activation of ComR” value in [2] was “inactive”.
Regarding “MGLDWWSL [type II peptide MGLDWWSL from S. mutans]”, the “in vivo activation efficiency / activation of ComR” value in series [2] was “more efficiently activated by the type II peptide MGLDWWSL from S. mutans than by the type I peptide VPFFMIYY”.
With LPAFAGCL [XIP Y19A variant (ComS 17-24 with Y19A)], in series [3], the Kd was 52 nM and the stoichiometry N is 1.5.
Regarding LPYFAGCL [XIP octapeptide (ComS 17-24, LPYFAGCL) from Streptococcus thermophilus LMD-9], the Kd in series [4] was determined as 87 nM; in series [5], 1180 nM; in series [6] it was 9 nM; in series [7], 277 nM; in [8], 244 nM; in [9] it was 141 nM. Besides, the Kd in series [10] came out at 10 nM; in [3], 8 nM. The stoichiometry N in series [4] turned out to be 1.1; in series [5], 0.8; in series [6] it was 0.8; in [7] it was 1.2; in series [8], 0.7; in series [9], 0.9. Besides, the stoichiometry N was found to be 0.8 in series [10] and 1.1 in [3].
Turning to LPYFAGCA [XIP L24A variant (ComS 17-24 with L24A)], in [3], the Kd worked out at 1550 nM and the stoichiometry N stood at 1.75.
Taken in the same sequence, the figures for LPYAAGCL [XIP F20A variant (ComS 17-24 with F20A)] were 2130 nM and 1.2.

B1: PcomX ComR-box (20 bp) (dsDNA)
DNA 1: TAGTGACATATATGTCTCTA
DNA 2: TAGAGACATATATGTCACTA
Take B1: the binding result in [11] is recorded as “binds”.

Source of the values: publication PMC5131891, “Structural Insights into Streptococcal Competence Regulation by the Cell-to-Cell Communication System ComRS” (PLoS Pathogens, 2016).
